Laboratory results: IntAct's records for PubMed 31663849

B1: Secretagogin (Homo sapiens), O76038 (parent)
chain: MDSSREPTLGRLDAAGFWQVWQRFDADEKGYIEEKELDAFFLHMLMKLGTDDTVMKANLHKVKQQFMTTQDASKDGRIRMKELAGMFLSEDENFLLLFRRENPLDSSVEFMQIWRKYDADSSGFISAAELRNFLRDLFLHHKKAISEAKLEEYTGTMMKIFDRNKDGRLDLNDLARILALQENFLLQFKMDACSTEERKRDFEKIFAYYDVSKTGALEGPEVDGFVKDMMELVQPSISGVDLDKFREILLRHCDVNKDGKIQKSELALCLGLKINP

Variants of: B1
Conditions: with snp25_mouse Snap25, P60879
Chain of snp25_mouse Snap25, P60879 (P60879 whole entry, looked up): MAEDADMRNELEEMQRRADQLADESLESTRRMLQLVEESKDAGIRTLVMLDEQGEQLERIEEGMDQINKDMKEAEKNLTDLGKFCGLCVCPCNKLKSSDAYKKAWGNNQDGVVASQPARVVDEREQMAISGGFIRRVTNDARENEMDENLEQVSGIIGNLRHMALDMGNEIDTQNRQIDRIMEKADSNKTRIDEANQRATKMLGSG

Question: How did the “effect of a mutation on the interaction” value turn out when R77H was run?
Answer: with no effect
